The labels stand for the following.
B1: HDV Ribozyme (parent)
chain: GGCCGGCAUGGUCCCAGCCUCCUCGCUGGCGCCGGCUGGGCAACAUUCCGAGGGGACCGUCCCCUCGGUAAUGGCGAAUGGGACCCA

The series covers variants of B1. As to the kind of experiment: self-cleavage, relative activity (ratio to wild type); higher = more cleavage; co-transcriptional.
As for GGCCGGCAUGGUCCCAGCCUCCUCGCUGGCGCCGGCUGGGCAACAUUCCGAGUGGACCGUCCCCUCGGUAAUGGCGAAUGGGACUCA [G53U C85U], the self-cleavage is 0.969.

In the case of GGCCGGCAUGGUCCCAGCCUCCUCGCUGGCGCCGGCUGGGCAACAUUCCGAGUGGACCCUCCCCUCGGUAAUGGCGAAUGGGACCCA [G53U G59C], the self-cleavage was 1.23.

Regarding GGCCGGCAUGGUCCCAGCCUCCUCGCUGGCGCCGGCUGGGCAACAUUCCGAGUGGACCAUCCCCUCGGUAAUGGCGAAUGGGACCCA [G53U G59A], the self-cleavage amounted to 1.14.

For the variant GGCCGGCAUGGUCCCAGCCUCCUCGCUGGCGCCGGCUGGGCAACAUUCCGAGUGGACCUUCCCCUCGGUAAUGGCGAAUGGGACCCA [G53U G59U], the self-cleavage was determined as 0.899.

For GGCCGGCAUGGUCCCAGCCUCCUCGCUGGCGCCGGCUGGGCAACAUUCCGAGUGGACCGUCCCCUCGCUAAUGGCGAAUGGGACCCA [G53U G68C], the self-cleavage worked out at 0.277.

Regarding GGCCGGCAUGGUCCCAGCCUCCUCGCUGGCGCCGGCUGGGCAACAUUCCGAGUGGACCGUCCCCUCAGUAAUGGCGAAUGGGACCCA [G53U G67A], the self-cleavage came out at 0.855.

Regarding GGCCGGCAUGGUCCCAGCCUCCUCGCUGGCGCCGGCUGGGCAACAUUCCGAGGAGACCGUCCCCUCGGUCAUGGCGAAUGGGACCCA [G54A A70C], the self-cleavage is 0.779.

For GGCCGGCAUGGUCCCAGCCUCCUCGCUGGCGCCGGCUGGGCAACAUUCCGAGUGGACCGUCCCCUCGGUAAUGUCGAAUGGGACCCA [G53U G74U], the self-cleavage was 0.701.

With GGCCGGCAUGGUCCCAGCCUCCUCGCUGGCGCCGGCUGGGCAACAUUCCGAGUGGACCGUCCCCUCGGUAAUGACGAAUGGGACCCA [G53U G74A], the self-cleavage is 0.646.

GGCCGGCAUGGUCCCAGCCUCCUCGCUGGCGCCGGCUGGGCAACAUUCCGAGUGGACCGUCCCCUCGGUAAUGCCGAAUGGGACCCA [G53U G74C]: the self-cleavage amounted to 0.202.

GGCCGGCAUGGUCCCAGCCUCCUCGCUGGCGCCGGCUGGGCAACAUUCCGAGUGGACCGUCCCCUCGGUAAUGGCCAAUGGGACCCA [G53U G76C]: the self-cleavage was 1.11.

On to GGCCGGCAUGGUCCCAGCCUCCUCGCUGGCGCCGGCUGGGCAACAUUCCGAGUGGACCGUCCCCUCGGAAAUGGCGAAUGGGACCCA [G53U U69A], for which the self-cleavage is 0.969.

Regarding GGCCGGCAUGGUCCCAGCCUCCUCGCUGGCGCCGGCUGGGCAACAUUCCGAGUGGACCGUCCCCUCGGCAAUGGCGAAUGGGACCCA [G53U U69C], the self-cleavage amounted to 0.931.

Turning to GGCCGGCAUGGUCCCAGCCUCCUCGCUGGCGCCGGCUGGGCAACAUUCCGAGUGGACCGUCCCCUCGGGAAUGGCGAAUGGGACCCA [G53U U69G], the self-cleavage was 0.964.

In the case of GGCCGGCAUGGUCCCAGCCUCCUCGCUGGCGCCGGCUGGGCAACAUUCCGAGGAGACCGUCCCCUCGGUAUUGGCGAAUGGGACCCA [G54A A71U], the self-cleavage was 0.912.

On to GGCCGGCAUGGUCCCAGCCUCCUCGCUGGCGCCGGCUGGGCAACAUUCCGAGGAGAACGUCCCCUCGGUAAUGGCGAAUGGGACCCA [G54A C57A], for which the self-cleavage amounted to 0.818.

Take GGCCGGCAUGGUCCCAGCCUCCUCGCUGGCGCCGGCUGGGCAACAUUCCGAGGAGAUCGUCCCCUCGGUAAUGGCGAAUGGGACCCA [G54A C57U]: the self-cleavage came out at 1.02.

For GGCCGGCAUGGUCCCAGCCUCCUCGCUGGCGCCGGCUGGGCAACAUUCCGAGGAGACCGUCCGCUCGGUAAUGGCGAAUGGGACCCA [G54A C63G], the self-cleavage stood at 0.816.

Take GGCCGGCAUGGUCCCAGCCUCCUCGCUGGCGCCGGCUGGGCAACAUUCCGAGGAGACCGUCCUCUCGGUAAUGGCGAAUGGGACCCA [G54A C63U]: the self-cleavage is 1.04.

As for GGCCGGCAUGGUCCCAGCCUCCUCGCUGGCGCCGGCUGGGCAACAUUCCGAGUGGACCGUCCCCUCGGUAAUGGCGAAUGUGACCCA [G53U G81U], the self-cleavage was 0.28.

Consider GGCCGGCAUGGUCCCAGCCUCCUCGCUGGCGCCGGCUGGGCAACAUUCCGAGGAGUCCGUCCCCUCGGUAAUGGCGAAUGGGACCCA [G54A A56U], for which the self-cleavage came to 0.878.

With GGCCGGCAUGGUCCCAGCCUCCUCGCUGGCGCCGGCUGGGCAACAUUCCGAGGAGCCCGUCCCCUCGGUAAUGGCGAAUGGGACCCA [G54A A56C], the self-cleavage worked out at 1.03.

In the case of GGCCGGCAUGGUCCCAGCCUCCUCGCUGGCGCCGGCUGGGCAACAUUCCGAGGAGACCGUCCCCUCGGUAAUGGCGAUUGGGACCCA [G54A A78U], the self-cleavage is 0.245.

GGCCGGCAUGGUCCCAGCCUCCUCGCUGGCGCCGGCUGGGCAACAUUCCGAGUGGACCGUCCCCUCGGUAAUGGCGAAUGGUACCCA [G53U G82U]: the self-cleavage came out at 0.427.

As for GGCCGGCAUGGUCCCAGCCUCCUCGCUGGCGCCGGCUGGGCAACAUUCCGAGGAGACGGUCCCCUCGGUAAUGGCGAAUGGGACCCA [G54A C58G], the self-cleavage was found to be 1.03.

Turning to GGCCGGCAUGGUCCCAGCCUCCUCGCUGGCGCCGGCUGGGCAACAUUCCGAGUGGACCGUCCCCUGGGUAAUGGCGAAUGGGACCCA [G53U C66G], the self-cleavage is 0.821.

In the case of GGCCGGCAUGGUCCCAGCCUCCUCGCUGGCGCCGGCUGGGCAACAUUCCGAGUGGACCGUCCCCUUGGUAAUGGCGAAUGGGACCCA [G53U C66U], the self-cleavage amounted to 1.15.

Consider GGCCGGCAUGGUCCCAGCCUCCUCGCUGGCGCCGGCUGGGCAACAUUCCGAGUGGACCGUACCCUCGGUAAUGGCGAAUGGGACCCA [G53U C61A], for which the self-cleavage was found to be 1.02.

Consider GGCCGGCAUGGUCCCAGCCUCCUCGCUGGCGCCGGCUGGGCAACAUUCCGAGGAGACCGUCCCCUCGGUAAUGGCGGAUGGGACCCA [G54A A77G], for which the self-cleavage was found to be 0.614.

Regarding GGCCGGCAUGGUCCCAGCCUCCUCGCUGGCGCCGGCUGGGCAACAUUCCGAGGAGACCGUCCCCUCGGUAAUGGCGUAUGGGACCCA [G54A A77U], the self-cleavage was 0.634.

In the case of GGCCGGCAUGGUCCCAGCCUCCUCGCUGGCGCCGGCUGGGCAACAUUCCGAGUGGAUCGUCCCCUCGGUAAUGGCGAAUGGGACCCA [G53U C57U], the self-cleavage stood at 1.01.

For GGCCGGCAUGGUCCCAGCCUCCUCGCUGGCGCCGGCUGGGCAACAUUCCGAGUGGAGCGUCCCCUCGGUAAUGGCGAAUGGGACCCA [G53U C57G], the self-cleavage was 1.1.
